Broadly, the Kd is a measure of binding affinity in units of concentration.

For this experiment, the target named is Nullbasic-FLAG-V5-6xHis (HIV-1). Put plainly: BLI. Background: Biolayer interferometry detects binding as a change in optical thickness at a sensor tip.

B1: Myc-DDK-tagged DDX1 (natural protein)
chain: MAAFSEMGVMPEIAQAVEEMDWLLPTDIQAESIPLILGGGDVLMAAETGSGKTGAFSIPVIQIVYETLKDQQEGKKGKTTIKTGASVLNKWQMNPYDRGSAFAIGSDGLCCQSREVKEWHGCRATKGLMKGKHYYEVSCHDQGLCRVGWSTMQASLDLGTDKFGFGFGGTGKKSHNKQFDNYGEEFTMHDTIGCYLDIDKGHVKFSKNGKDLGLAFEIPPHMKNQALFPACVLKNAELKFNFGEEEFKFPPKDGFVALSKAPDGYIVKSQHSGNAQVTQTKFLPNAPKALIVEPSRELAEQTLNNIKQFKKYIDNPKLRELLIIGGVAARDQLSVLENGVDIVVGTPGRLDDLVSTGKLNLSQVRFLVLDEADGLLSQGYSDFINRMHNQIPQVTSDGKRLQVIVCSATLHSFDVKKLSEKIMHFPTWVDLKGEDSVPDTVHHVVVPVNPKTDRLWERLGKSHIRTDDVHAKDNTRPGANSPEMWSEAIKILKGEYAVRAIKEHKMDQAIIFCRTKIDCDNLEQYFIQQGGGPDKKGHQFSCVCLHGDRKPHERKQNLERFKKGDVRFLICTDVAARGIDIHGVPYVINVTLPDEKQNYVHRIGRVGRAERMGLAISLVATEKEKVWYHVCSSRGKGCYNTRLKEDGGCTIWYNEMQLLSEIEEHLNCTISQVEPDIKVPVDEFDGKVTYGQKRAAGGGSYKGHVDILAPTVQELAALEKEAQTSFLHLGYLPNQLFRTF
B1 had a Kd of 6 nM.
